Laboratory results reported in patent US20240100176A1 (Eli Lilly, published 2024).

T1: human FcγRIIA_131R (CD32a) extracellular domain (human, UniProt P12318 34-217)
T1 construct: extracellular domain
T1 sequence (looked up): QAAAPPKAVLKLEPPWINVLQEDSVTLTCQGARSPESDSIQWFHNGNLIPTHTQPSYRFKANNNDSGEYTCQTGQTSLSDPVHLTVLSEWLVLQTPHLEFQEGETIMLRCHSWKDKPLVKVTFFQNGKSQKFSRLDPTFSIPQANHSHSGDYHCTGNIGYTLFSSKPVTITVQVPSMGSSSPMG

T2: human FcγRIIb (CD32b) extracellular domain (human, UniProt P31994 43-217)
T2 construct: extracellular domain
T2 sequence (looked up): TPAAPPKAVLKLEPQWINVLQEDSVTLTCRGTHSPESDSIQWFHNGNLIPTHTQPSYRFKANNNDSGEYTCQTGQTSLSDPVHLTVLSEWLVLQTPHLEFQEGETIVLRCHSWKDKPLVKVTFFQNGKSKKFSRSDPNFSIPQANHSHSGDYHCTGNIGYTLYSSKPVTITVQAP

T3: human FcγRIIA_131H (CD32a) extracellular domain (human, UniProt P12318 34-217)
T3 construct: extracellular domain
T3 sequence (looked up): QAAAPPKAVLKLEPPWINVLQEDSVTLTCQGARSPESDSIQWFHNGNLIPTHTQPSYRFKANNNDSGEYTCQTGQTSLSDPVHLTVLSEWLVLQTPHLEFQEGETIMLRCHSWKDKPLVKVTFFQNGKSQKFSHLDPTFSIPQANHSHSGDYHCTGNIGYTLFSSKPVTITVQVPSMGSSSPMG

B1: anti-human IL-4Rα antibody Ab1 (antibody, human IgG4 S228P, kappa)
heavy: QVQLVESGGGLVQPGGSLRLSCVASGFTFSHSSMNWVRQAPGKGLEWVSYISRATGAVYYADSVKGRFTISRDNAKNSLYLQMNSLRDEDTAVYYCAREPVFDYWGQGTLVTVSSASTKGPCVFPLAPCSRSTSESTAALGCLVKDYFPEPVTVSWNSGALTSGVHTFPAVLQSSGLYSLSSVVTVPSSSLGTKTYTCNVDHKPSNTKVDKRVESKYGPPCPPCPAPEFLGGPSVFLFPPKPKDTLMISRTPEVTCVVVDVSQEDPEVKFNWYVDGVEVHNAKTKPREEQFNSTYRVVSVLTVLHQDWLNGKEYKCKVSNKGLPSSIEKTISKAKGQPREPQVYTLPPSREEMTKNQVSLTCLVKGFYPSDICVEWESNGQPENNYKTTPPVLDSDGSFFLYSRLTVDKSRWQQGNVFSCSVMHEALHNHYTQKSLSLSLG
light: DIQMTQSPSAMSASVGDRVTITCRASQDISNYLAWFQQKPGKVPTRLIYAASSLQSGVPSRFSGSGSGTEFTLTISSLQPEDFATYYCLQWSSYPRTFGQGTKVEIKRTVAAPSVFIFPPSDEQLKSGTASVVCLLNNFYPREAKVQWKVDNALQSGNSQESVTEQDSKDSTYSLSSTLTLSKADYEKHKVYACEVTHQGLSSPVTKSFNRGEC
notes: human kappa light chain; also called anti-human IL-4Rα Ab1; unconjugated Ab1
B2: anti-human IL-4Rα Ab1 GC conjugate of Example 1b (n=4) (antibody, human IgG4 S228P, kappa)
heavy: QVQLVESGGGLVQPGGSLRLSCVASGFTFSHSSMNWVRQAPGKGLEWVSYISRATGAVYYADSVKGRFTISRDNAKNSLYLQMNSLRDEDTAVYYCAREPVFDYWGQGTLVTVSSASTKGPCVFPLAPCSRSTSESTAALGCLVKDYFPEPVTVSWNSGALTSGVHTFPAVLQSSGLYSLSSVVTVPSSSLGTKTYTCNVDHKPSNTKVDKRVESKYGPPCPPCPAPEFLGGPSVFLFPPKPKDTLMISRTPEVTCVVVDVSQEDPEVKFNWYVDGVEVHNAKTKPREEQFNSTYRVVSVLTVLHQDWLNGKEYKCKVSNKGLPSSIEKTISKAKGQPREPQVYTLPPSREEMTKNQVSLTCLVKGFYPSDICVEWESNGQPENNYKTTPPVLDSDGSFFLYSRLTVDKSRWQQGNVFSCSVMHEALHNHYTQKSLSLSLG
light: DIQMTQSPSAMSASVGDRVTITCRASQDISNYLAWFQQKPGKVPTRLIYAASSLQSGVPSRFSGSGSGTEFTLTISSLQPEDFATYYCLQWSSYPRTFGQGTKVEIKRTVAAPSVFIFPPSDEQLKSGTASVVCLLNNFYPREAKVQWKVDNALQSGNSQESVTEQDSKDSTYSLSSTLTLSKADYEKHKVYACEVTHQGLSSPVTKSFNRGEC
modifications: glucocorticoid receptor agonist payload-linker (GC-L, Preparation 8) conjugated to the engineered cysteines at the 124 and 378 position of the heavy chain (EU numbering); n is 4 (average DAR 4.17 by RP-HPLC, 3.85 by TOF MS)

Assays:
[1] = molecular target: T4, hexahistidine tagged human IL-4Rα ECD D143R (human, UniProt P24394 26-232); assay: capture ELISA: Ab1 on anti-human IgG Fc, His-tagged receptor at 1 µg/mL, anti-His HRP
T4 construct: not shown: hexahistidine tag
T4 sequence (P24394 26-232 D168R): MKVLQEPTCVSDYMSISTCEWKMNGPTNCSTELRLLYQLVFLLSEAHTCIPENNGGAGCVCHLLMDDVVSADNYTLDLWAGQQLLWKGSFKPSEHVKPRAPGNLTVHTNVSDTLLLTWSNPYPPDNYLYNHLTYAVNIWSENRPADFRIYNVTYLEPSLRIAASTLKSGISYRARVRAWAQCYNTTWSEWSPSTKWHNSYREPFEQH
Description: (§1) Example 2d. […] Briefly, thirty surface amino acid residue substitutions were introduced individually into hexahistidine tagged human IL-4Rα extra cellular domain (ECD) as follows: K2D, E6R, K22D, P26R, T31R, F41A, L42G, L43G, E45R, E52R, G56R, D66R, A71R, Q82G, K87D, E94R, H107A, D108R, P124R, D125R, D143R, R148D, L155R, R160D, S164R, S168R, Q181R, P192R, K195D, or H197G. Each mutant protein having a single amino acid residue substitution as described above was transiently expressed in CHO cells and purified using standard immobilized metal affinity chromatography techniques. […] The plates were then washed 3 times with PBST and the exemplified human IL-4Rα antibody was added to the wells at a final concentration of 1 μg/mL in PBS-casein and incubated for 1 hour at room temperature. The plates were washed 3 times with PBST, the IL-4Rα mutant proteins were serially diluted 5-fold from 1 μg/mL for 3 points. in PBS-casein and added to the plate at 50 μL/well and incubated for 1 hour at room temperature. The plates were washed 3 times with PBST and a 1000-fold dilution of anti-histidine tag antibody HRP conjugate (R&D Systems, Cat. #MAB050H) in PBS-casein was added and incubated for 45 minutes at room temperature. The plates were washed 3 times, TMB substrate (Pierce, Cat. #34028) was added per manufacturer instructions, the reaction was quenched with H₂SO₄, and absorbance was read at 450 nm on an ELISA plate reader.

[2] = molecular target: T5, hexahistidine tagged human IL-4Rα ECD Q181R (human, UniProt P24394 26-232); assay: as above
T5 construct: not shown: hexahistidine tag
T5 sequence (P24394 26-232 Q206R): as the sequence (P24394 26-232 D168R) above, with R143D, Q181R counted along it
Description: as §1

[3] = molecular target: T6, hexahistidine tagged human IL-4Rα ECD T31R (human, UniProt P24394 26-232); assay: as above
T6 construct: not shown: hexahistidine tag
T6 sequence (P24394 26-232 T56R): as the sequence (P24394 26-232 D168R) above, with T31R, R143D counted along it
Description: as §1

[4] = molecular target: T7, hexahistidine tagged human IL-4Rα ECD P192R (human, UniProt P24394 26-232); assay: as above
T7 construct: not shown: hexahistidine tag
Description: as §1

[5] = molecular target: T8, hexahistidine tagged human IL-4Rα ECD E6R (human, UniProt P24394 26-232); assay: as above
T8 construct: not shown: hexahistidine tag
T8 sequence (P24394 other isoform, or with tags, fused parts or gaps): as the sequence (P24394 26-232 D168R) above, with E6R, R143D counted along it
Description: as §1

[6] = molecular target: T1, human FcγRIIA_131R (CD32a) …; assay: SPR (Biacore), antibody captured on protein A, FcγR ECD as analyte, steady state, 25 °C
Experimental: (§2) Unreacted sites were blocked with a 7 minute injection of ethanolamine at 10 μL/minute. Injections of 2×10 μL of glycine, pH 1.5, was used to remove any noncovalently associated protein. Running buffer was 1×HBS-EP+(TEKNOVA, P/N H8022). The FcγR extracellular domains (ECDs)-FcγRI (CD64), FcγRIIA_131R, and FcγRIIA_131H (CD32a), FcγRIIIA_158V, FcγRIIIA_158F (CD16a), and FcγRIIb (CD32b) were produced from stable CHO cell expression and purified using IgG Sepharose and size exclusion chromatography. For FcγRI binding, antibodies were diluted to […] in running buffer, and approximately 150 RU of each antibody was captured in FCs 2 through 4 (RU captured). FC1 was the reference FC, therefore no antibody was captured in FC1. […] Duplicate injections of each concentration were injected over all FCs at 40 μL/minute for 120 seconds followed by a 1200 second dissociation phase. Regeneration was performed by injecting 15 μL of 10 mM glycine, pH 1.5, at 30 μL/minute over all FCs. Reference-subtracted data was collected as FC2 FC1, FC3-FC1, and FC4-FC1 and the measurements were obtained at 25° C. The affinity (KD) was calculated using either steady state equilibrium analysis with the Scrubber 2 Biacore Evaluation Software or a “1:1 (Langmuir) binding” model in BIA Evaluation. For FcγRIIa, FcγRIIb, and FcγRIIIa binding, antibodies were diluted to 5 μg/mL in running buffer, and approximately 500 RU of each antibody was captured in FCs 2 through 4). FC1 was the reference FC. […] Duplicate injections of each concentration were injected over all FCs at 40 μL/minute for 60 seconds followed by a 120 second dissociation phase. Regeneration was performed by injecting 15 μL of 10 mM glycine, pH 1.5, at 30 μL/minute over all FCs. Reference-subtracted data was collected as FC2-FC1, FC3-FC1, and FC4-FC1, and the measurements were obtained at 25° C. The affinity (KD) was calculated using the steady state equilibrium analysis with the Scrubber 2 Biacore Evaluation Software. Each receptor was assayed at least two times.

[7] = molecular target: T2, human FcγRIIb (CD32b) extracellular …; assay: as above
Experimental: as §2

[8] = molecular target: T3, human FcγRIIA_131H (CD32a) …; assay: as above
Experimental: as §2

Binder	ELISA (OD450) [1] [OD450]	ELISA (OD450) [2] [OD450]	ELISA (OD450) [3] [OD450]	ELISA (OD450) [4] [OD450]	ELISA (OD450) [5] [OD450]	Kd [6] [µM]	Kd [7] [µM]	Kd [8] [µM]
B1	1.75	1.91	1.64	1.94	2.25	–	–	–
B2	–	–	–	–	–	1.82	1.96	3.65
